Earlier results as cited in US20100267610A1, “Polypeptide comprising a knottin protein moiety” (priority 2007, published 2010).
Where no end group is shown, it is not given here.

Target: T1, PTH-1 receptor (P1R) (Homo sapiens, UniProt Q03431)
T1 sequence (Q03431 27-593): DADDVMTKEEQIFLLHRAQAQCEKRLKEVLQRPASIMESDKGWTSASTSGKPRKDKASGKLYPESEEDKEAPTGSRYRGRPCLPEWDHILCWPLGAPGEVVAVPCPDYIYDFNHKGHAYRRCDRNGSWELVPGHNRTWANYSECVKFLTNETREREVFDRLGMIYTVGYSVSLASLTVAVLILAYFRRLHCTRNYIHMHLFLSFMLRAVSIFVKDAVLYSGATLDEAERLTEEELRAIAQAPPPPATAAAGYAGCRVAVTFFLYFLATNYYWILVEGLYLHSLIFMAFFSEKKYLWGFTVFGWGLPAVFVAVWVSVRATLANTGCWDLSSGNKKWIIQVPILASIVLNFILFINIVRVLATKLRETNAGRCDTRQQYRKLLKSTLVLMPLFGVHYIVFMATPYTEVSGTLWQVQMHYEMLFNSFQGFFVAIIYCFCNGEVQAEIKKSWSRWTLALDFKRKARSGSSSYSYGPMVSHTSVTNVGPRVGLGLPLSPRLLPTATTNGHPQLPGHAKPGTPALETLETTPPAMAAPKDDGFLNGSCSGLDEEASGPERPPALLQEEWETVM
Conditions: Shimizu et al. 2000

PTH (1-14): shorter native analog of PTH, residues 1-14, from the literature (SVSEIQLMHNLGKH-NH2; UniProt P01270 32-45, looked up, fragment)
activation of cAMP formation in cells: able to activate cAMP formation at high micromolar concentrations
